Data set [1] has as its target T1, 5-enol-pyruvyl-shikimate-3-phosphate synthase (AtEPSPS) (Arabidopsis thaliana, UniProt P05466).
T1 construct: gene At2g45300; residues 77-520 (starts from Lys77, preceded by Ser-Asn-Ala)
T1 sequence (P05466 77-520): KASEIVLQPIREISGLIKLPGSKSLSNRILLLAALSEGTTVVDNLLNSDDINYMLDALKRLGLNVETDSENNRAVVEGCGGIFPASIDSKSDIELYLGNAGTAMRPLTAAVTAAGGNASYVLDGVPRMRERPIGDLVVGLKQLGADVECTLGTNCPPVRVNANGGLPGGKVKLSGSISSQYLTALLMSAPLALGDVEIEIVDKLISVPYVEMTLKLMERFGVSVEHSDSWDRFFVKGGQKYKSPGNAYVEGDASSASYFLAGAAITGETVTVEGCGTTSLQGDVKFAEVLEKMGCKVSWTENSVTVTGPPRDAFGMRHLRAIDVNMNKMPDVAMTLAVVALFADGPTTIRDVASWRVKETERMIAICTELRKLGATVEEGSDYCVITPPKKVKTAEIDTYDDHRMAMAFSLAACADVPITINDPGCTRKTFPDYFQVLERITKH
Kind of data set: malachite green phosphate-release assay, Lineweaver-Burk analysis (Ki vs PEP about […]; Ki vs S3P about […]; IC50 about […]). In kind it is biochemical.

Substrate in data set [2]: O=C(O)C1=C[C@@H](OP(=O)(O)O)[C@@H](O)[C@H](O)C1
Kind of data set: steady-state kinetics of the purified enzyme, KM(app), malachite green assay. In kind it is biochemical, Arabidopsis thaliana.

Substrate in the data set “purified protein”: C=C(OP(=O)(O)O)C(=O)O
Kind of data set: purified protein. Conditions: glyphosate is competitive with respect to PEP.

What is called Ki is the dissociation constant of the complex between target and ligand, obtained from inhibition or displacement. Lower therefore signals tighter binding. Turning to `O=C(O)CNCP(=O)(O)O` [glyphosate, N-[phosphonomethyl]glycine], the Ki in data set [1] is ~1000 nM.

B1: 5-enol-pyruvyl-shikimate-3-phosphate synthase (AtEPSPS) (Arabidopsis thaliana) (protein)
chain: T1 sequence (P05466 77-520)
notes: residues 77-520 (starts from Lys77, preceded by Ser-Asn-Ala)
By Km is commonly meant the substrate concentration at which the rate is half of its maximum. For B1, the Km was found to be 200 µM in data set [2] and 185 µM in “purified protein”.

Source of the values: PMC8983318, “Deciphering the structure of Arabidopsis thaliana 5-enol-pyruvyl-shikimate-3-phosphate synthase: An essential step toward the discovery of novel inhibitors to supersede glyphosate” (Computational and Structural Biotechnology Journal, 2022).
